Among the data in patent US20080242590A1, “New Method 706” (ASTRAZENECA AB, priority 2007, published 2008) are calculated half-life values, retold here.

A short description of the data set: Pharmacokinetics of Fc-Nep and in-house produced Neprilysin, single i.v. dose (Example 27). Type of data set: in vivo. Conditions: mice, single i.v. dose 10 or 50 nmol enzyme/kg. On the procedure: The Fc-Nep fusion protein was developed to improve the pharmacokinetic entities of neprilysin with the specific aims to reduce clearance and improve half-life. To test this we have administrated a single i.v. dose of 10 or 50 nmol enzyme/kg body weight neprilysin (Nep) or Fc-Nep (1 and 5 mg/kg) to mice. At set times the dose blood samples were drawn from the tail vein or by heart puncture at termination. Upon sampling into tubes containing EDTA the aliquots were put on ice. Plasma was prepared by centrifugation within 15 minutes of sampling (typically 1500 g at 4° C. for 10 min) and immediately frozen. Plasma concentrations of Nep and Fc-Nep were determined via immunoassays using either anti-Nep for Nep or anti-human IgG for Fc-Nep as capture antibodies while both substances were detected via an anti-Nep antibody. Pharmacokinetic parameters are calculated using a software package (WinNonlin, Pharsight Corporation, USA) and in this example experiment the calculated half-life had increased from about 1 day for Nep to about 2.5 weeks for Fc-Nep.

B1: Nep: in-house produced Neprilysin (extra-cellular domain only), without Fc (protein, UniProt P08473 52-750, looked up)
extracellular domain: YDDGICKSSDCIKSAARLIQNMDATTEPCTDFFKYACGGWLKRNVIPETSSRYGNFDILRDELEVVLKDVLQEPKTEDIVAVQKAKALYRSCINESAIDSRGGEPLLKLLPDIYGWPVATENWEQKYGASWTAEKAIAQLNSKYGKKVLINLFVGTDDKNSVNHVIHIDQPRLGLPSRDYYECTGIYKEACTAYVDFMISVARLIRQEERLPIDENQLALEMNKVMELEKEIANATAKPEDRNDPMLLYNKMTLAQIQNNFSLEINGKPFSWLNFTNEIMSTVNISITNEEDVVVYAPEYLTKLKPILTKYSARDLQNLMSWRFIMDLVSSLSRTYKESRNAFRKALYGTTSETATWRRCANYVNGNMENAVGRLYVEAAFAGESKHVVEDLIAQIREVFIQTLDDLTWMDAETKKRAEEKALAIKERIGYPDDIVSNDNKLNNEYLELNYKEDEYFENIIQNLKFSQSKQLKKLREKVDKDEWISGAAVVNAFYSSGRNQIVFPAGILQPPFFSAQQSNSLNYGGIGMVIGHEITHGFDDNGRNFNKDGDLVDWWTQQSASNFKEQSQCMVYQYGNFSWDLAGGQHLNGINTLGENIADNGGLGQAYRAYQNYIKKNGEEKLLPGLDLNHKQLFFLNFAQVWCGTYRPEYAVNSIKTDVHSPGNFRIIGTLQNSAEFSEAFHCRKNSYMNPEKKCRVW
modifications: extracellular domain
notes: in-house produced Neprilysin (extra-cellular domain only), without Fc
Take B1: the calculated half-life result was “about 1 day”.
